# Results reported in patent US20080113907A1, “Uses Of Galectin-2” (Charite-Universitat-Smedizin Berlin, priority 2004, published 2008).
# Assays:
# chronic DSS colitis = assay: Therapy of chronic DSS colitis, disease activity index (DAI); type: in vivo, Balb/c mice; settings: control 5.3 ± 0.7
# Source text: Colitis was induced in 30 8- to 10-week-old, female, Balb/c mice (Jackson Laboratories, Bar Harbor, Me.) by adding 5% DSS (Sigma Chemical Co., St. Louis, Mo.) (Dextran Sodiumsulfate (DSS) to their drinking water for the period of seven days and allowing them to drink ad libitum. At the 8th day DSS administration was stopped for another seven days. This scheme of DSS administration for seven days followed by a period of seven days pure water administration was repeated as shown in FIG. 15B. At the 29th day 20 mice were treated with Galectin-2 intraperitoneally (i.p.) parallel to DSS administration. In one trial of this treatment a group of 10 mice were treated with 2 mg/kg Galectin-2 once a day and in another trial the same total dose was distributed in two administrations for a group of ten mice, e.g. 10 mice were treated with respectively 1 mg/kg Galectin-2 twice a day. Parallel a group of 10 mice was treated with 0,9% NaCl instead of Galectin-2 as control. At the 8th day the Galectin-2 treatment was stopped. Parallel to the treatment mice were weighed and inspected for diarrhea and rectal bleeding. After stopping the treatment mice were killed, their entire colon was resected, and its length was measured and weighed. The disease activity index (DAI; i.e., the combined score of weight loss and bleeding) was determined according to a standard scoring system […]
# PBT [1] = assay: Cytokine secretion (cytometric bead array); type: cell-based, human
# Protocol: To determine cytokine secretion, PBT were cultured for 48 h with or without anti-CD3 mAb and incubated in the presence or absence of 0, 10, or 50 μg/ml Gal-2. The supernatant was then collected and cytokine secretion determined by a cytometric bead array, performed according to the manufacturer's instruction (BD Pharmingen). Briefly, six bead populations with distinct fluorescence intensities, coated with capture antibodies specific for TNF-α, IFN-γ, IL-10, IL-5, IL-4, and IL-2 proteins, were mixed with PE-conjugated detection anti-bodies and incubated with recombinant standards or test sample to form sandwich complexes. Following acquisition of sample data using flow cytometry, the cytokine concentrations were calculated using the BD CBA analysis software.
# PBT [2] = assay: Mitochondrial membrane potential (rhodamine 123); type: cell-based, human; settings: CD3 activated PBT, 50 μg/ml
# Source text: Rhodamine 123 is a fluorescent cationic dye that accumulates in the mitochondrial matrix because of its charge and solubility in both the inner mitochondrial membrane and matrix space (22). Based on the observation that accumulation of this lipophilic dye is in proportion to ΔΨ, and that deenergizing of the mitochondria decreases rhodamine 123 fluorescence (23), the inventors measured the mitochondrial membrane potential of PBT. Cells were stimulated in the presence or absence of galectin-2 with CD3 for 24 h, harvested, washed and resuspended in 1 ml of rhodamine 123 (10 μg/ml, Sigma-Aldrich) for 30 min at 37° C. in the dark. The samples were washed twice in cold PBS and fluorescence analysis by flow cytometry using an argon ion laser with an emission filter at 530 nm was performed immediately without fixation (BD FacsCalibur). PBT without stimulation and unstained samples were used as controls.
# caspase-3 = assay: Caspase activity by flow cytometry; type: cell-based, human; settings: anti-CD3 activated PBT, 50 μg/ml, 24 h
# Protocol: To measure caspase activity, 5×10^5 PBT were incubated in the presence or absence of 50 μg/ml galectin-2 together with derivates of the PE-labelled affinity purified anti-caspase-3 Ab (BD Pharmingen), the carboxyfluorescein-labelled caspase-8 inhibitor FAM-LETD-fmk or caspase-9 inhibitor FAM-LEHD-fmk (both from Biocharta, Hamburg, Germany), all binding irreversibly to activated caspase-3, -8 or -9, respectively. Cells were than analyzed by flow cytometry (FACS-Calibur, BD) and the increase of caspase activity determined after proper gating in correlation to untreated cells.
# [3] = tested on: acute and chronic DSS colitis; assay: Dose finding studies in acute and chronic DSS colitis; type: in vivo, BALB/c mice
# Protocol: Acute and chronic colitis were induced in BALB/c mice by adding 5% DSS to the drinking water for 7 days to induce acute colitis, or for 3 cycles of 7 days DSS following 7 days without DSS to induce chronic colitis, respectively (Siegmund B, Lehr H A, Fantuzzi G. Leptin: a pivotal mediator of intestinal inflammation in mice. Gastroenterology 2002; 122: 2011-2025). Animals with acute or chronic colitis were treated i.p. with either physiological NaCl as control or Gal-2 once daily (od), twice daily (bid) or three time daily (tid) for 10 days. In one experimental protocol Gal-2 and NaCl 0.9% were injected subcutaneously. Gal-2 doses ranging from 0.5-2 mg/kg body weight in individual doses and total daily doses of 3 mg/kg body weight and different dosing regimens were evaluated. Tacrolimus (1 mg/kg bodyweight), Infliximab (10 mg/kg bodyweight), prednisolone (1 mg/kg bodyweight), all well-known modulators of experimental colitis and human inflammatory bowel diseases were used as positive controls.
# PBT were isolated, stimulated with CD3 for 3 days and cytokine secretion was determined by cytometric bead array (CBA) analysis as described previously (Sturm A, Rilling K, Baumgart D C, Gargas K, Abou-Ghazale T, Raupach B, Eckert J, Schumann R R, Enders C, Sonnenborn U, Wiedenmann B, Dignass A U. Escherichia coli Nissle 1917 distinctively modulates T-cell cycling and expansion via toll-like receptor 2 signaling. Infect.Immun. 2005; 73: 1452-1465.) Mucosal recruitment of granulocytes was assessed by Myeloperoxidase activity (Rath H C, Herfarth H H, Ikeda J S, Grenther W B, Hamm T E, Jr., Balish E, Taurog J D, Hammer R E, Wilson K H, Sartor R B. Normal Luminal Bacteria, Especially Bacteroides Species, Mediate Chronic Colitis, Gastritis, and Arthritis in HLA-B27/Human beta 2 Microglobulin Transgenic Rats. Journal of Clinical Investigation 1996; 98: 945-953).
molecule,measurement,setting,value
"galectin-2: β-galactoside binding lectin, non-covalent dimer with subunits of about 14 kDa; recombinant human or rat (SEQ ID NO:1, 2) (protein) MAGELEVKNMDMKPGSTLKITGSIADGTDGFVINLGQGTDKLNLHFNPRFSESTIVCNSLDGSNWGQEQREDHLCFSPGSEVKFTVTFESDKFKVKLPDGHELTFPNRLGHSHLSYLSVRGGFNMSSFKLKE",DAI (disease activity index),chronic DSS colitis; 1 × 2 mg/kg i.p. once a day,"4.5 ± 0.6,"
same,DAI (disease activity index),chronic DSS colitis; 2 × 1 mg/kg i.p. twice a day,"2.8 ± 0.3,"
same,IFN-γ production,PBT [1]; anti-CD3 activated T cells,downregulated significantly and dose-dependently
same,IL-2 secretion,PBT [1]; anti-CD3 activated T cells,not influenced
same,IL-4 secretion,PBT [1]; anti-CD3 activated T cells,not altered
same,IL-5 secretion,PBT [1]; anti-CD3 activated T cells,increasing
same,IL-10 secretion,PBT [1]; anti-CD3 activated T cells,increasing
same,TNF-α production,PBT [1]; anti-CD3 activated T cells,downregulated significantly and dose-dependently
same,cytokine production of resting T cells,PBT [1]; resting T cells,failed to modulate cytokine production of resting T cells
same,mitochondrial polarization potential,PBT [2],clear decrease in the mitochondrial polarization potential
same,caspase-3 activity,caspase-3,significant increase
same,effect on disease activity (DAI),"[3]; acute and chronic DSS colitis, i.p., different dosing intervals and doses",significantly reduced disease activity
same,safety and toxicity,[3]; acute and chronic DSS model,did not reveal any abnormalities
same,"myeloperoxidase, mucosal granulocyte infiltration",[3]; data not shown,significant reduction of mucosal granulocyte infiltration
same,deaths,[3]; doses 1-3 mg/kg body weight,no deaths were observed
same,"human versus rat Gal-2, disease activity",[3]; equivalent doses and treatment regimens,No significant differences were observed
same,improvement of disease activity,[3]; optimal dose 2×1 mg/kg bodyweight,more than 250%
same,total daily dose range with largest benefit on disease activity,[3]; per day,1.5-3 mg/kg bodyweight
same,effect on disease activity (DAI),[3]; subcutaneous (sc) administration,only in minor and not significant improvement of disease activity
same,effects compared with positive controls,"[3]; tacrolimus 1 mg/kg, infliximab 10 mg/kg, prednisolone 1 mg/kg",comparable with the potent immunomodulator tacrolimus and more potent as the effects observed for prednisolone and infliximab
same,histological analyses of intestinal injury and inflammation,[3]; versus control animals,significant reduction of intestinal injury and inflammation
